One data set addresses T1, PBX1-DBD (UniProt P40424 233-295).
T1 sequence: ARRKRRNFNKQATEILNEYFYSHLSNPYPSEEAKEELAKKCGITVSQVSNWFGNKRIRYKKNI
Description: SPR.

Data set [1] has as its target T2, PBX1 (recombinant, Origene) (UniProt P40424 1-430).
T2 sequence: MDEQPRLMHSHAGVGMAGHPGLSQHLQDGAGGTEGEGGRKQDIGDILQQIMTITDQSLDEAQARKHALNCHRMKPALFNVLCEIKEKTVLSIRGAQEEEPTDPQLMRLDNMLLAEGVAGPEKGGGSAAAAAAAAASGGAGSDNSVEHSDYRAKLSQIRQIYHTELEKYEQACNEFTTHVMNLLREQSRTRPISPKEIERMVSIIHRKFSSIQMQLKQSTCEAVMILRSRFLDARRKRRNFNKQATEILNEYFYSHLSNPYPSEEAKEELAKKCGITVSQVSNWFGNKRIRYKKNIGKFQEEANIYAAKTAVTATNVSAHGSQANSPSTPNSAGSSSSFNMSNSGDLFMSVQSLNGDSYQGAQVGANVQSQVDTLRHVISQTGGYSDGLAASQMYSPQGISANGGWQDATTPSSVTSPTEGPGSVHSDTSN
As to the kind of experiment: EMSA. A general note: A gel shift assay detects complexes by their altered migration in electrophoresis.

Data on two molecules can be found in publication PMC8591422.

B1: PBX1 Probe (PBX1-CS-DNA-Biotin) (dsDNA)
DNA 1: CGAAATTGATTGATGCTTTAATTGAC
DNA 2: GTCAATTAAAGCATCAATCAATTTCG
The Kd is the concentration at which binding is half-saturated. Higher therefore signals weaker binding. B1: binding in the data set with PBX1-DBD was put at a Kd of 800 pM.

B2: PBX-MEIS Probe (dsDNA)
DNA 1: CTGCGTTGATTGACAGCCGC
DNA 2: GCGGCTGTCAATCAACGCAG
As for B2, in data set [1], the binding result is “binds”.
